Columns and labels:
human CGRP receptor = human CGRP receptor (human, UniProt Q16602 23-461; O60894 27-148); assay: cell-based or functional assay
human PAC1 receptor = target: T1, human PAC1 receptor (human, UniProt P41586 24-468); assay: cell-based or functional assay
T1 sequence: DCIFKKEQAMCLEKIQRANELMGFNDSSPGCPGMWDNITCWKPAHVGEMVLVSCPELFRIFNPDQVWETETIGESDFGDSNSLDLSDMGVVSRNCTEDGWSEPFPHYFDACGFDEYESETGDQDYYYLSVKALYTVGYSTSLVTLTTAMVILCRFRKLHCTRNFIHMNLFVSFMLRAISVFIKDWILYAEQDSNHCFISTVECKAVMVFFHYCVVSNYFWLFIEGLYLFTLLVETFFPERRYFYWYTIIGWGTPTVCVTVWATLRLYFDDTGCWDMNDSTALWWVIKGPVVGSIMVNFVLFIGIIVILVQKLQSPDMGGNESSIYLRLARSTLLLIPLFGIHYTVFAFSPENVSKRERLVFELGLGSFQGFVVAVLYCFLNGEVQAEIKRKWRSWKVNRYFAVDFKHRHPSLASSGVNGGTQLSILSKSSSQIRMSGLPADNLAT

Sequence of human CGRP receptor (Q16602 23-461 limits assumed, chain 1 of 2): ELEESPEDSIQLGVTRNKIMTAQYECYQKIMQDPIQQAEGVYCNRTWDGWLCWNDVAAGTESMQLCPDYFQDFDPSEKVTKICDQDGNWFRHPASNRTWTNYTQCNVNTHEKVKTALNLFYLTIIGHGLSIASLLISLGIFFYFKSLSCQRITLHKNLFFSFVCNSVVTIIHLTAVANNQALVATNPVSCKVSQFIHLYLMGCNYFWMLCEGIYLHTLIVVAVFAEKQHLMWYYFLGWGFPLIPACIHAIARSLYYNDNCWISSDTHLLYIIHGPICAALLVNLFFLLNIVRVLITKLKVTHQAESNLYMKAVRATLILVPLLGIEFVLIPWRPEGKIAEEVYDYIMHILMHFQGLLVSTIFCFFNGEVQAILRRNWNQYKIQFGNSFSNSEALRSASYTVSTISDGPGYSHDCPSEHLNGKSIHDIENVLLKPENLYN
Sequence of human CGRP receptor (O60894 27-148 limits assumed, chain 2 of 2): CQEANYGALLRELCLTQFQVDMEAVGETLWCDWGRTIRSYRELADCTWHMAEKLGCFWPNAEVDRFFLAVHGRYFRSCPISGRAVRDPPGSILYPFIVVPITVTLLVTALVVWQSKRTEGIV

Row | Fold-improvement over 4E4 Ab (human CGRP receptor) [fold] | IC50 (human CGRP receptor) [nM] | Fold-improvement over 29G4v22 Ab (human PAC1 receptor) [fold] | IC50 (human PAC1 receptor) [nM] | Binder
1 | 1.1 | 0.51 | 2.1 | 2.65 | iPS:454585 (bispecific antibody, human IgG1, kappa, lambda, N297G) light 1: QSVLTQPPSVSAAPGQKVTISCSGSYSNIGRYSVSWYQQLPGTAPKLLIYDNNKRPSGIPDRFSGSKSGTSATLGITGLQTGDEADYYCGTWDSRLSAVVFGGGTKLTVLGQPKAAPSVTLFPPSSEELQANKATLVCLISDFYPGAVTVAWKADSSPVKAGVETTTPSKQSNNKYAAKSYLSLTPEQWKSHRSYSCQVTHEGSTVEKTVAPTECS heavy 1: QVQLVESGGGVVQPGRSLRLSCAASGFTFSSFGMHWVRQAPGKGLEWVAVISFDGSIKYSVDSVKGRFTISRDNSKNTLFLQMNSLRAEDTAVYYCARDRLNYYESSGYYHYKYYGMAVWGQGTTVTVSSASTKGPSVFPLAPSSKSTSGGTAALGCLVKDYFPEPVTVSWNSGALTSGVHTFPAVLQSSGLYSLESVVTVPSSSLGTQTYICNVNHKPSNTKVDKKVEPKSCDKTHTCPPCPAPELLGGPSVFLFPPKPKDTLMISRTPEVTCVVVDVSHEDPEVKFNWYVDGVEVHNAKTKPCEEQYGSTYRCVSVLTVLHQDWLNGKEYKCKVSNKALPAPIEKTISKAKGQPREPQVYTLPPSRKEMTKNQVSLTCLVKGFYPSDIAVEWESNGQPENNYKTTPPVLKSDGSFFLYSKLTVDKSRWQQGNVFSCSVMHEALHNHYTQKSLSLSPGK light 2: EIVLTQSPATLSLSPGERATLSCRASKSVGWSLHWYQQKPGQAPRLLIKYASQSLSGIPARFSGSGSGTDFTLTISSLEPEDFAVYYCHQSSRLPFTFGPGTKVDIKRTVAAPSVFIFPPSDEQLKSGTASVVCLLNNFYPREAKVQWKVDNALQSGNSQESVTEQDSKDSTYSLESTLTLSKADYEKHKVYACEVTHQGLSSPVTKSFNRGEC heavy 2: not shown
2 | 0.9 | 0.58 | 1.3 | 4.36 | iPS:454587 (bispecific antibody, human IgG1, kappa, lambda, N297G) light 1: QSVLTQPPSVSAAPGQKVTISCSGSYSNIGRYSVSWYQQLPGTAPKLLIYDNNKRPSGIPDRFSGSKSGTSATLGITGLQTGDEADYYCGTWDSRLSAVVFGGGTKLTVLGQPKAAPSVTLFPPSSEELQANKATLVCLISDFYPGAVTVAWKADSSPVKAGVETTTPSKQSNNKYAAKSYLSLTPEQWKSHRSYSCQVTHEGSTVEKTVAPTECS heavy 1: QVQLVESGGGVVQPGRSLRLSCAASGFTFSSFGMHWVRQAPGKGLEWVAVISFDGSIKYSVDSVKGRFTISRDNSKNTLFLQMNSLRAEDTAVYYCARDRLNYYESSGYYHYKYYGMAVWGQGTTVTVSSASTKGPSVFPLAPSSKSTSGGTAALGCLVKDYFPEPVTVSWNSGALTSGVHTFPAVLQSSGLYSLESVVTVPSSSLGTQTYICNVNHKPSNTKVDKKVEPKSCDKTHTCPPCPAPELLGGPSVFLFPPKPKDTLMISRTPEVTCVVVDVSHEDPEVKFNWYVDGVEVHNAKTKPCEEQYGSTYRCVSVLTVLHQDWLNGKEYKCKVSNKALPAPIEKTISKAKGQPREPQVYTLPPSRKEMTKNQVSLTCLVKGFYPSDIAVEWESNGQPENNYKTTPPVLKSDGSFFLYSKLTVDKSRWQQGNVFSCSVMHEALHNHYTQKSLSLSPGK light 2: EIVLTQSPATLSLSPGERATLSCRASKSVGWSLHWYQQKPGQAPRLLIKYASQSLSGIPARFSGSGSGTDFTLTISSLEPEDFAVYYCHQSSRLPFTFGPGTKVDIKRTVAAPSVFIFPPSDEQLKSGTASVVCLLNNFYPREAKVQWKVDNALQSGNSQESVTEQDSKDSTYSLESTLTLSKADYEKHKVYACEVTHQGLSSPVTKSFNRGEC heavy 2: not shown

Reference: patent US20220363770A1 (Amgen, published 2022)
